{"source": "paper doi:10.1101/2023.05.03.539133", "about": "(bioRxiv, 2023)", "proteins": {"B1": {"name": "inner membrane cytochrome c ImcH from Geobacter sulfurreducens (recombinant, C-terminal 6x His-tag) (natural protein, UniProt Q747K6 1-507, looked up)", "chain": "MTLRKTAGYLWNPISLIGFLLAVVATGLIIAFIAMEMITGIDHPYIGLLVYFAFPGMLILGLILVPIGAWRVRNQRRTEVPEEVPPYPRVDFNDPHKRRLFIFFVLASVIFVLIVSVASILGFEFTESTTFCGELCHVVMEPEHKAWQGSPHARVKCVECHVGPGAEWYVKAKLSGLRQVWAVLTHSYHFPIATPIENLRPARDTCEQCHWPEKFYSGRQRVFYHYAPNKENTPREINMLIKIGGTPKSPHAMGIHWHIGTEVTYIARDRKRLDIPYVAVKQKDGSIVEYMDTEKPLTREEIAKAEKRRMDCIDCHNRPTHIYRSPAREMDEHIVSGQIDAGLPYIKKVAVEILEQPYKSKEEAHAAIEAKLPEYYAKNFPEVAKVKAAAINQAVAHVKDIYSRNFFPRMKVTWSTYPNHIGHFYTPGCFRCHDGKHKTSTGKIISKDCNMCHEMIGQKGENIPEGKVVKEFVHPADIGDALYNVNCSDCHMAAAEDSAGGEGPGKH", "modifications": "seven c-type hemes (CXXCH heme binding motifs)"}}, "key": {"[1]": {"molecular_target": "the molecule itself", "experiment": "SEC"}, "[2]": {"molecular_target": "the molecule itself", "experiment": "AUC"}}}
{"protein": "B1", "values": [{"measurement": "stoichiometry N", "setting": "[1]", "result": 2}, {"measurement": "stoichiometry N", "setting": "[2]", "result": 4}]}
